The values below come from patent US20020045591A1, “Methods and therapeutic compositions for treating cancer” (priority 1998, published 2002).

In one assay the test system is SW480 cells. The assay is described as follows: Double immunofluorescence of β-catenin in SW480 cells (Example 2). Format: cell-based, human. The conditions noted are these: transfected SW480 cells, FIG. 19B. The text has this: (§1) Immunofluorescence Microscopy: Cells cultured on glass coverslips were fixed with 3.7% paraformaldehyde in PBS and permeabilized with 0.5% Triton X-100. Monoclonal antibodies against human plakoglobin (11E4), β-catenin (5H10), the COOH terminus of β-catenin (6F9) and α-catenin (1G5) were described and kindly provided by Drs. M. Wheelock and K. Johnson (Univ. Toledo, Ohio). The secondary antibody was FITC- or Cy3-labeled goat anti mouse IgG (Jackson ImmunoResearch Laboratories, West Grove, Pa.). Polyclonal antiserum against β-catenin, monoclonal antibody against pan cadherin (CH-19), vinculin ([…]) and α-actinin (BM75.2) were from Sigma (Holon, Israel). Monoclonal antibodies against the splicing factor SC35 and the HA epitope were kindly provided by Dr. D. Helfman (CSH Laboratory, N.Y.). Polyclonal rabbit antibody against the VSV-G epitope was a gift from Dr. JC Perriard (ETH, Zurich, Switzerland). FITC-labeled goat anti-rabbit IgG antibody was from Cappel/ICN. Monoclonal antibody against LEF-1 was kindly provided by Dr. R. Grosschedl (Univ. Calif. San Francisco, Calif.). […] Images of the fluorescent cells were recorded with a cooled, scientific grade CCD camera (Photometrics, Tucson, Ariz.). Integrated fluorescent intensities in transfected and nontransfected cells were determined, after the background was subtracted.

The test system of assay [1] is β-catenin-dependent transactivation. The assay is described as follows: LEF-1 consensus luciferase transactivation in SW480 cells (Example 2). In kind it is cell-based, human. The conditions noted are these: co-transfection, FIG. 19A. As for the experimental part: (§2) Cell Culture and Transfections: Canine kidney epithelial cells MDCK, human fibrosarcoma HT1080, 293-T human embryonic kidney cells, Balb/C mouse 3T3 and human colon carcinoma SW480 cell lines were cultured in Dulbecco's modified Eagle's medium supplemented with 10% calf serum (Gibco, Grand Island, N.Y.) at 37° C. in the presence of 7% CO2. The human renal carcinoma cell line KTCTL60 was grown in RPMI medium and 10% calf serum. Cells were transiently transfected with the cDNA constructs described below, using Ca^2+-phosphate or lipofectamine (Gibco) and the expression of the transgene was assessed between 24 and 48 hours after transfection. In some experiments, the expression of the stably transfected NH2 terminus-deleted β-catenin (Δ57) was enhanced in HT1080 cells by overnight treatment with 2 mM sodium butyrate.
(§3) A plasmid encoding β-galactosidase (0.5 μg) was cotransfected to enable normalization for transfection efficiency. The relevant plasmid expressing catenin constructs (4.5 μg) was co-transfected with the reporter, or an empty expression vector was included. After 24-48 hours expression of the reporter (luciferase) and the control (β-galactosidase) genes were determined using enzyme assay systems from Promega (Madison, Wis.).

For a further assay, the system named is endogenous β-catenin. Description: Double immunofluorescence of endogenous β-catenin in transfected cells. Format: cell-based. The conditions noted are these: FIG. 18C.
Text: as §1

The subject of assay [2] is LEF-1-driven transcription. Description: LEF-1 consensus (TOPFLASH) transactivation in 293 cells. In kind it is cell-based, human. The conditions noted are these: FIG. 18B. As for the experimental part:
as §2, §3

B1: α-catenin Δβ: HA-tagged mutant α-catenin lacking the β-catenin binding site (amino acids 118-166) (protein)
chain: MTAVTAGNVNFRWDPKSLEIRTLAVERLLEPLVTQVTTLVNTSNKGPSNKKRGRSKKAHVLAASVEQATENFLDKGDKIAKESQFLKEELVAAVEDVRKQGDLMKSASGEFADDPCSAGTEQDLGIQYKALKPEVDKLNIMAAKRQQELKDVGHRDQMAAARGILQKNVPILYTASQACLQHFDVAAYKANRDLIYKQLQQAVTGISNAAQATASDDAAQQQGGGGELAYALNNFDKQIIVDPSTFSEQRFRPSLEERLESIISGAALMADSSCTRDDRRERIVAECNAVRQALQDLLSEYMGNAGRKERSDALNSAIDKMTKKTRDLRRQLRKAVMDHVSDSFLETNVPLLVLIEAARNGNEKEVKEYTQVFREHANKLIEVANLACSISNNEEGVKLVRMSASQLEALCPQVINAALALAAKPQSKLAQENMELFKEQWEKQVRVLTDAVDDITSIDDFLAVSENHILEDVNKCVIALQEKDVDGLDRTAGAIRGRAARVIHVVTSEMDNYEPGVYTEKVLEATKLLSNTVMPRFTEQVEAAVEALSSDPAQPMDENEFIDRSRLVYDGIRDIRKAVLMIRTPEELDDSDFETEDFDVRSKTSIQTEDDQLIAGQSARAIMAQLPQEQKAKIAEAVASFQEEKSKLDAEVSKWDDSGNDIIVLAKQMCMIMMEMTDFTRGKGPLKNTSDVISAAKKIAEAGSRMDKLGRTIADHCPDSASKQDLLAYLQRIALYCHQLNICSKVKAEVQNLGGELVVSGVDSAMSLIQAAKNLMNAVVQTVKASYVASTKYQKSQGMASLNLPAVSWKMKAPEKKPLVKREKQDETQTKIKRASQKKHVNPVQALSEFKAMESI
modifications: left off: small tags and cut ends
For B1, the “effect on nuclear localization of β-catenin” value with SW480 cells is given as “did not show this activity”. Moreover, the “effect on constitutive LEF-1 driven transcription” value in assay [1] was “abolished the transactivation inhibition capacity”.

B2: plakoglobin: HA-tagged human plakoglobin (protein, UniProt P14923 1-745, looked up)
Junction plakoglobin: MEVMNLMEQPIKVTEWQQTYTYDSGIHSGANTCVPSVSSKGIMEEDEACGRQYTLKKTTTYTQGVPPSQGDLEYQMSTTARAKRVREAMCPGVSGEDSSLLLATQVEGQATNLQRLAEPSQLLKSAIVHLINYQDDAELATRALPELTKLLNDEDPVVVTKAAMIVNQLSKKEASRRALMGSPQLVAAVVRTMQNTSDLDTARCTTSILHNLSHHREGLLAIFKSGGIPALVRMLSSPVESVLFYAITTLHNLLLYQEGAKMAVRLADGLQKMVPLLNKNNPKFLAITTDCLQLLAYGNQESKLIILANGGPQALVQIMRNYSYEKLLWTTSRVLKVLSVCPSNKPAIVEAGGMQALGKHLTSNSPRLVQNCLWTLRNLSDVATKQEGLESVLKILVNQLSVDDVNVLTCATGTLSNLTCNNSKNKTLVTQNSGVEALIHAILRAGDKDDITEPAVCALRHLTSRHPEAEMAQNSVRLNYGIPAIVKLLNQPNQWPLVKATIGLIRNLALCPANHAPLQEAAVIPRLVQLLVKAHQDAQRHVAAGTQQPYTDGVRMEEIVEGCTGALHILARDPMNRMEIFRLNTIPLFVQLLYSSVENIQRVAAGVLCELAQDKEAADAIDAEGASAPLMELLHSRNEGTATYAAAVLFRISEDKNPDYRKRVSVELTNSLFKHDPAAWEAAQSMIPINEPYGDDMDATYRPMYSSDVPLDPLEMHMDMDGDYPIDTYSDGLRPPYPTADHMLA
modifications: HA tag
Turning to B2, in the assay on endogenous β-catenin, the “nuclear translocation of endogenous β-catenin” value was “resulted in nuclear translocation of endogenous β-catenin”. Besides, the “LEF-1-driven transcription, fold lower extent than β-catenin” value in assay [2] fell in the range of 3 to 4 fold.

B3: α-catenin: HA-tagged chicken α-catenin in the pCGN vector (protein)
chain: TAVTAGNVNFRWDPKSLEIRTLAVERLLEPLVTQVTTLVNTSNKGPSNKKRGRSKKAHVLAASVEQATENFLDKGDKIAKESQFLKEELVAAVEDVRKQGDLMKSASGEFADDPCSSVKRGNMVRAARALLSAVTRLLILADMADVYKLLVQLKVVEEGILKLRNAGTEQDLGIQYKALKPEVDKLNIMAAKRQQELKDVGHRDQMAAARGILQKNVPILYTASQACLQHFDVAAYKANRDLIYKQLQQAVTGISNAAQATASDDAAQQQGGGGELAYALNNFDKQIIVDPSTFSEQRFRPSLEERLESIISGAALMADSSCTRDDRRERIVAECNAVRQALQDLLSEYMGNAGRKERSDALNSAIDKMTKKTRDLRRQLRKAVMDHVSDSFLETNVPLLVLIEAARNGNEKEVKEYTQVFREHANKLIEVANLACSISNNEEGVKLVRMSASQLEALCPQVINAALALAAKPQSKLAQENMELFKEQWEKQVRVLTDAVDDITSIDDFLAVSENHILEDVNKCVIALQEKDVDGLDRTAGAIRGRAARVIHVVTSEMDNYEPGVYTEKVLEATKLLSNTVMPRFTEQVEAAVEALSSDPAQPMDENEFIDRSRLVYDGIRDIRKAVLMIRTPEELDDSDFETEDFDVRSKTSIQTEDDQLIAGQSARAIMAQLPQEQKAKIAEAVASFQEEKSKLDAEVSKWDDSGNDIIVLAKQMCMIMMEMTDFTRGKGPLKNTSDVISAAKKIAEAGSRMDKLGRTIADHCPDSASKQDLLAYLQRIALYCHQLNICSKVKAEVQNLGGELVVSGVDSAMSLIQAAKNLMNAVVQTVKASYVASTKYQKSQGMASLNLPAVSWKMKAPEKKPLVKREKQDETQTKIKRASQKKHVNPVQALSEFKAMESI
modifications: left off: small tags and cut ends
notes: HA-tagged chicken α-catenin in the pCGN vector
For the molecule B3, the “effect on nuclear localization of β-catenin” value with SW480 cells is on record as “sequestered to the cytoplasm”. Further, the “effect on constitutive LEF-1 driven transcription” value in assay [1] is “effectively blocked”.
